The numbers were not newly measured in patent US11229683B2, “Hematopoietic growth factor proteins and analogs thereof and angiotensin converting enzyme inhibitors for treatment of radiation exposure” (priority 2015, dated 2022), which cites them from elsewhere.

Read-outs that look alike come from different tables or passages of the source.

Data set [1] has as its system irradiated monkeys. Conditions: cited from earlier work; for survival versus vehicle: daily sc treatment started 48 h post-TBI.
The subject of data set [2] is chemotherapy (cyclophosphamide)-treated rats. Conditions: single injection; cited from earlier work.

B1: G-CSF: human G-CSF (filgrastim (Neupogen, Amgen, Inc.) (protein, listed as Homo sapiens)
chain: TPLGPASSLPQSFLLKCLEQVRKIQGDGAALQEKLCATYKLCHPEELVLLGHSLGIPWAPLSSCPSQALQLAGCLSQLHSGLFLYQGLLQALEGISPELGPTLDTLQLDVADFATTIWQQMEELGMAPALQPTQGAMPAFASAFQRRAGGVLVASHLQSFLEVSYRVLRHLAQP
On to B1, for which the “60-day survival of rhesus monkeys” value in data set [1] (daily sc 0.01 mg/kg/day for 16-23 days, started 24 h post-TBI) is “increased 60-day survival”. Further, in data set [1] (daily sc beginning 24 h post-TBI for about 16 days, placebo 50%), the “survival of irradiated monkeys” value is recorded as 80%. In addition, the survival versus vehicle entry is listed as “did not increase survival” in data set [1] and “but not when administered at 48 h post-TBI” in data set [1] (listed as filgrastim). Also, in data set [2], the recovery from neutropenia entry was “ineffective”.
